From publication PMC8786284, “Serine acetyltransferase from Neisseria gonorrhoeae; structural and biochemical basis of inhibition” (Biochemical Journal, 2022)

B1: Neisseria gonorrhoeae serine acetyltransferase (enzyme, Neisseria gonorrhoeae MS11, UniProt Q5F6X0 1-272, looked up)
chain: MKKNHLNTTGFDLWHTIREETAAAAAAEPMLASFLHQTVLRHESLGSVLAYHLSSKLGSPIMDVRALFEIYQQALGSDTQISKCVEADLKAIYERDPACDEYSLPLLYFKGFHAIQAHRINHRLYLDGRKTLAYFLQNRMSEVFGVDIHPAARLGYGLMLDHATGFVAGETAVLGNNISILHGVTLGGSGKEGGDRHPKIGDGVMIGANASILGNIRIGSNAKIGAGSVVVSDVPPSITVVGVPAKPVARSLKTPSADMDQNIQFAEIDFMI
notes: 272-residue polypeptide (N-terminal domain 1-144, LbetaH domain 145-272) with an uncleaved 21-residue N-terminal histidine tag; monomer with tag 31.6 kDa; Hexamer (dimer of trimers); also called NgSAT; SAT; source: E. coli BL21 (DE3), purified (HisTrap IMAC, gel filtration); not shown: His-tag, N-terminal, kept

Assays:
[1] = target: T1, Serine acetyltransferase (NgSAT) (Neisseria gonorrhoeae, UniProt Q5F6X0); experiment: biochemical
T1 construct: gene NGO_1423; full-length, N-terminal His-tag, hexamer

purified protein = substrate: N[C@@H](CO)C(=O)O; experiment: purified protein; format: biochemical, Neisseria gonorrhoeae; conditions: active site between adjacent monomers; Asp96, Asp161, His162, Arg196, His197
[2] = substrate: CC(=O)SCCNC(=O)CCNC(=O)[C@H](O)C(C)(C)COP(=O)(O)OP(=O)(O)OC[C@H]1O[C@@H](n2cnc3c(N)ncnc32)[C@H](O)[C@@H]1OP(=O)(O)O; experiment: Michaelis-Menten kinetics (KM) with purified enzyme; format: biochemical, Neisseria gonorrhoeae
[3] = target: the molecule itself; experiment: SEC; Enrich 650 analytical gel filtration column calibrated with Gel Filtration Standards (Bio-Rad); 50 mM Tris pH 8.0, 100 mM NaCl; oligomeric state of NgSAT
[4] = target: the molecule itself; experiment: SEC-SAXS; Superdex 200 5/150 in line with SAXS, co-flow; 50 mM Tris pH 8.0, 100 mM NaCl, without or with 50 µM L-cysteine; 25°C; mass from Porod volume and P(r) analysis

| Molecule | IC50 [1] | Km (purified protein) | kcat (purified protein) | kcat/Km (purified protein) | Km [2] | kcat [2] | kcat/Km [2] | stoichiometry N [3] | stoichiometry N [4] |
| --- | --- | --- | --- | --- | --- | --- | --- | --- | --- |
| CC(C)(COP(=O)(O)OP(=O)(O)OC[C@H]1O[C@@H](n2cnc3c(N)ncnc32)[C@H](O)[C@@H]1OP(=O)(O)O)[C@@H](O)C(=O)NCCC(=O)NCCS [coenzyme A] | 573 ± 11 µM |  |  |  |  |  |  |  |  |
| B1 |  | 1210 ± 160 µM | 1440 ± 41 s⁻¹ | 1.19e+06 M⁻¹ s⁻¹ | 149 ± 50 µM | 1180 ± 111 s⁻¹ | 7.89e+06 M⁻¹ s⁻¹ | 6 | 6.1 monomers per structure |
